Where no end group is shown, it is not given here. fluorescein = fluorescein, a fluorescent label on the peptide N-terminus
Key:
Assay in all cases: fluorescence polarisation
DegS P229A = biological target: T1, DegS P229A (E. coli, UniProt P0AEE3 27-355, P229A)
T1 sequence (looked up): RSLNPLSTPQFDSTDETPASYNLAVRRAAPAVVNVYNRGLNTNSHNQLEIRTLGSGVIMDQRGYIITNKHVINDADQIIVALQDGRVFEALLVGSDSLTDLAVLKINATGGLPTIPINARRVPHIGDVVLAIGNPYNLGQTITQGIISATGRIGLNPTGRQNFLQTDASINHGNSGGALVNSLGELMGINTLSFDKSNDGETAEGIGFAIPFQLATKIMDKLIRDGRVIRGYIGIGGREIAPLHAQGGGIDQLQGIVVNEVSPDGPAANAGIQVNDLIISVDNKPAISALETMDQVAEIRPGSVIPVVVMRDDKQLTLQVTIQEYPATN

DegS H198P/I232A = biological target: T2, DegS H198P/I232A (E. coli, UniProt P0AEE3 27-355, H198P | I232A)
T2 sequence (looked up): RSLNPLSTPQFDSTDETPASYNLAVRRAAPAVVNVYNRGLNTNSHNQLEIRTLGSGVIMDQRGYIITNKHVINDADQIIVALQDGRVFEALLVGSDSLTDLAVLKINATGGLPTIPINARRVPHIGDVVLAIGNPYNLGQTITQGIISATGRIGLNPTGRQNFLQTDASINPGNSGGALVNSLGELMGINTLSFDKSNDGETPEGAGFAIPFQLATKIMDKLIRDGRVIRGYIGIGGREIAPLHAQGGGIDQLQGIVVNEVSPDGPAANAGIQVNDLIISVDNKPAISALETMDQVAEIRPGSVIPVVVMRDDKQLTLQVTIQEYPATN

DegS T169A/H198P = biological target: T3, DegS T169A/H198P (E. coli, UniProt P0AEE3 27-355, T169A | H198P)
T3 sequence (looked up): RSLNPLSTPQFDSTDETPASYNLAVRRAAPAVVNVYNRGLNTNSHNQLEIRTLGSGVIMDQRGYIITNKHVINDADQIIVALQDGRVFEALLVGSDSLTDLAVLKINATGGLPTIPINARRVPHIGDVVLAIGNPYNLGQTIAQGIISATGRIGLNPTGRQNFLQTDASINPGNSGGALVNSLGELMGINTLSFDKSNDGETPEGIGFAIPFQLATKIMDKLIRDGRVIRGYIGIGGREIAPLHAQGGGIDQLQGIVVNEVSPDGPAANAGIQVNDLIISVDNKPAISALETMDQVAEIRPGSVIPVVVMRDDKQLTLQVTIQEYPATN

DegS Q187A = biological target: T4, DegS Q187A (E. coli, UniProt P0AEE3 27-355, Q187A)
T4 sequence (looked up): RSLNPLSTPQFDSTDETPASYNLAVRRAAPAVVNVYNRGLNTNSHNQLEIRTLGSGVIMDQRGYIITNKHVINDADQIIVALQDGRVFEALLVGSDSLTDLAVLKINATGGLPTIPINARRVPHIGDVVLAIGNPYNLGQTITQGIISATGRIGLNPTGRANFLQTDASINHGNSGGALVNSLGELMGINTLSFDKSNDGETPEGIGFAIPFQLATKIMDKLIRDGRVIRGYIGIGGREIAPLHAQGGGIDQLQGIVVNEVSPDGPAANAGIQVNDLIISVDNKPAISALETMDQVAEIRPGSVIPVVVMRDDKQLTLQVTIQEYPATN

DegS Q191A = biological target: T5, DegS Q191A (E. coli, UniProt P0AEE3 27-355, Q191A)
T5 sequence (looked up): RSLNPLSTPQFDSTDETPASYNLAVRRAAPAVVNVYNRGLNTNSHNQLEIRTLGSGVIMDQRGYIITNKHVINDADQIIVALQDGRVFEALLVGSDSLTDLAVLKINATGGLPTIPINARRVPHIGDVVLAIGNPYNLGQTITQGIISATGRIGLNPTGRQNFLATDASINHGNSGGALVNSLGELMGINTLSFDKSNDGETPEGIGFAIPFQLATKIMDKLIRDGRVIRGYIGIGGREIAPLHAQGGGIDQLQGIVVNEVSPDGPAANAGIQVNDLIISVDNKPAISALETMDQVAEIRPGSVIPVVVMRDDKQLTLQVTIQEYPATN

DegS Q187A/H198P = biological target: T6, DegS Q187A/H198P (E. coli, UniProt P0AEE3 27-355, Q187A | H198P)
T6 sequence (looked up): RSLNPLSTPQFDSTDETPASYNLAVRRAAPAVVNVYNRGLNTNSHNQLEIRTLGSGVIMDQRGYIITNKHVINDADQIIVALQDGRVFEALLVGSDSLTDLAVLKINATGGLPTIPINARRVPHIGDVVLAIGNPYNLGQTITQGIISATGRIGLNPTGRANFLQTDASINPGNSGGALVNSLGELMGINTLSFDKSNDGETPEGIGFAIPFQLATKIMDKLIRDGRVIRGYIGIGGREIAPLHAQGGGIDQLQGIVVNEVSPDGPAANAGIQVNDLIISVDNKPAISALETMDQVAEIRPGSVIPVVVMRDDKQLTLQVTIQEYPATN

Kd (DegS P229A): 1.6 ± 0.2 µM
Kd (DegS H198P/I232A): 2.7 ± 0.3 µM
Kd (DegS T169A/H198P): 2 ± 0.2 µM
Kd (DegS Q187A): 2.3 ± 0.1 µM
Kd (DegS Q191A): 3.4 ± 1.3 µM
Kd (DegS Q187A/H198P): 1.5 ± 0.1 µM
Binder: fluorescein-DNRDGNVYYF [fluorescent OMP peptide fluorescein-DNRDGNVYYF]
